Data on ten substances can be found in article PMC8354326.

Assay [1] addresses PGT145. Description: ELISA. As to conditions: parent: 1.0.
The target of assay [2] is 2G12. Description: ELISA. As to conditions: parent: 1.0.

With AMC008 SOSIP.v4.2 Env trimer D620N, the ratio to parent came out at 1.5 in assay [1] and 0.9 in assay [2].
Regarding AMC008 SOSIP.v4.2 Env trimer E662A, the ratio to parent in assay [1] is 1.1; in assay [2], 0.9.
On to AMC008 SOSIP.v4.2 Env trimer K232T, for which the ratio to parent in assay [1] amounted to 1; in assay [2], 0.9.
On to “AMC008 SOSIP.v4.2 Env trimer K232T; K236T”, for which the ratio to parent in assay [1] and in assay [2] was 0.9 in each case.
With AMC008 SOSIP.v4.2 Env trimer K236T, the ratio to parent in assay [1] amounted to 1; in assay [2] it was 0.9.
For AMC008 SOSIP.v4.2 Env trimer N88Q the same measures were 0.8 and 0.8.
Take AMC008 SOSIP.v4.2 Env trimer N611Q: the ratio to parent in assay [1] and in assay [2] was 0.8 throughout.
In the case of AMC008 SOSIP.v4.2 Env trimer N616Q, the ratio to parent in assay [1] and in assay [2] was 0.9 in each case.
With AMC008 SOSIP.v4.2 Env trimer N624D, the results for the ratio to parent in assay [1] and in assay [2] were 0.9 and 0.8, respectively.
For AMC008 SOSIP.v4.2 Env trimer N637Q the same measures were 0.8 and 0.9.
